Experiments:
[1] = target: SSB1;INTAC complex (Integrator-PP2A) (human;human, UniProt Q9BQ15;Q8N201;Q9H0H0;Q68E01;Q96HW7;Q6P9B9;Q9UL03;Q9NVH2;Q75QN2;Q9NV88;Q9NVR2;Q5T …, |); assay: EMSA; supershift versus SSB1 alone; EMSA: 100 nM Cy3 probe, 20 mM Tris-HCl pH 7.5, 50 mM NaCl, 5 mM MgCl2, 0.2 mM EDTA, 1 mM DTT, on ice 30 min; 6% native PAGE, 0.5x TBE, cold room; settings: protein: recombinant;recombinant; on-column cleavage; copies: 1;1;1;1;1;1;1;1;1;1;1;1;1;1;1;1;1; label: 3' Cy3
SSB1 S172P/H173L = SSB1 S172P/H173L (human, UniProt Q9BQ15 1-211, S172P;H173L); assay: EMSA; retains ssDNA binding; EMSA: 100 nM Cy3 probe, 20 mM Tris-HCl pH 7.5, 50 mM NaCl, 5 mM MgCl2, 0.2 mM EDTA, 1 mM DTT, on ice 30 min; 6% native PAGE, 0.5x TBE, cold room; settings: protein: recombinant; label: 3' Cy3
SSB1 S172P/H173L, sequence (Q9BQ15 whole entry S172P/H173L): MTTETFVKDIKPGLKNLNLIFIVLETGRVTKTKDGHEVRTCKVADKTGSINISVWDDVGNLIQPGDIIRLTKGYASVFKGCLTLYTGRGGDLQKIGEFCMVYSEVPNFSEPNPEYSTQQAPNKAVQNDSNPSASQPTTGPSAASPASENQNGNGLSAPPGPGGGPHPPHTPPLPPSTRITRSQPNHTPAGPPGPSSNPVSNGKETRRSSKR

SSB1 R206Q = SSB1 R206Q (human, UniProt Q9BQ15 1-211, R206Q); assay: as above; settings: protein: recombinant; label: 3' Cy3
SSB1 R206Q, sequence (Q9BQ15 whole entry R206Q): as the sequence (Q9BQ15 whole entry S172P/H173L) above, with P172S, L173H, R206Q counted along it

Measured: binding result

TTTTTTTTTTTTTTTTTTTTTTTTTTTTTTTTTTTTTTTTTTTTTTTT (ssDNA) [oligo (dT)48]
binds: [1] | SSB1 S172P/H173L | SSB1 R206Q

— paper PMC10511320, “R-loop-dependent promoter-proximal termination ensures genome stability”
